Experimental data from patent US20070190075A1, “Hair growth stimulant composition” (Advangen, Inc. c/o National Institute of Advance Science …, priority 2003, published 2007).

Tested on: C3H/He mouse
Assay: Application to mouse after induction of growing stage, with hypodermic FGF-5 injection; shapes and sizes of hair follicles in skin slices
Format: in vivo
Conditions: FGF-5 5 μg hypodermically for 7 days; vs phosphate-buffered saline injected group
Method: The hair on the back of a C3H/He mouse (purchased from Japan SLC, Inc.) of an age of 8 weeks whose hair cycle was in the resting stage was pulled out to induce the growing stage. For 7 days from the day following the induction, FGF-5 of 5 μg was hypodermically injected at the same place every time, and around the injected place, the plant extracts from rose fruit, etc. (50% ethanol solutions), “tea extract” and “green tea extract” described in Example 1 were each further applied in an amount of 0.02 ml/cm^2 once a day. To a mouse of a control group, 50% ethanol was applied once a day in the same manner. Further, as a control to the FGF-5 hypodermic injection group, a mouse group wherein a phosphate-buffered saline solution was injected, was prepared.
On the day following the final application, the mouse was killed by dislocation of cervical vertebrae, and the skin at the applied place was taken. The skin thus taken was subjected to fixation with a 10% formalin aqueous solution, then treatment with an ethanol dehydration series, cleaning with xylene and embedding with paraffin. Using a microtome (available from Yamato), the skin was sliced in such a direction that the hair follicle from the top to the bottom could be completely visible, to prepare a skin slice of 4 μm. The resulting skin slice was extended on a silane-coated slide glass (available from Matsunami). […]

B1: FGF-5: Fibroblast growth factor 5, a cytokine that inhibits hair growth; injected hypodermically as challenge agent (protein, UniProt P12034 21-268, looked up)
Fibroblast growth factor 5: HGEKRLAPKGQPGPAATDRNPRGSSSRQSSSSAMSSSSASSSPAASLGSQGSGLEQSSFQWSPSGRRTGSLYCRVGIGFHLQIYPDGKVNGSHEANMLSVLEIFAVSQGIVGIRGVFSNKFLAMSKKGKLHASAKFTDDCKFRERFQENSYNTYASAIHRTEKTGREWYVALNKRGKAKRGCSPRVKPQHISTHFLPRFKQSEQPELSFTVTVPEKKKPPSPIKPKIPLSAPRKNTNSVKYRLKFRFG
  growth of hair follicles after hypodermic FGF-5 injection: growth of the hair follicles was inhibited more than that in the group wherein a phosphate-buffered saline solution had been injected
